Consider 2 molecules from patent US20110312897A1, “CATHEPSIN L PROTEOLYTICALLY PROCESSES HISTONE H3 DURING MOUSE EMBRYONIC STEM CELL DIFFERENTIATION” (THE ROCKEFELLER UNIVERSITY, priority 2008, published 2011).

The subject of this series is rH3-HIS. Nature of the series: H3 cleavage assay with recombinant cathepsins. Format: biochemical, mouse. The method, then:
Extracts were incubated in buffer (10 mM HEPES, 10 mM KCl, 1.5 mM MgCl2, 0.34M sucrose, 10% glycerol, 5 mM β-mercaptoethanol, all final) with 0.1 μg/μl rH3-HIS (purified from E. coli) and incubated at 37° C. for 1-3 hours. Reactions were stopped by addition of 5×SDS sample buffer and boiling; results were analyzed by immunoblotting with HIS-HRP and/or H3.cs1 antibody. For MS analysis, reactions were quenched by addition of 0.1% (final) TFA. rCathepsin L (R&D Systems, # 1515-CY-010), rCathepsin B (R&D Systems Cat No. BAF965), and rCathepsin K (Calbiochem Cat. No. 342001) were purchased from commercial sources and tested in the assay with rH3-HIS.
To further validate the identification of Cathepsin L as an H3 protease, recombinant mouse Cathepsin L enzyme was tested in the H3 cleavage assay (FIG. 5). […] To further characterize the sites of proteolytic cleavage, the reaction products of rCathepsin L and rH3-HIS were analyzed by MS. […] Also observed in both reactions were five of the six complementary N-terminal peptides generated by rCathepsin L cleavage of H3 (left), and their abundances correlated, as expected, with that of their C-terminal counterparts. […] In addition, the relative abundances of the in vivo H3 cleavage sites and those produced by Cathepsin L in vitro are highly correlative. […] Taken together, the above data support the conclusion that Cathepsin L is capable of generating all of the histone H3.2 fragments observed at day three following induction of ESC differentiation by retinoic acid.
Other cathepsin family members were then tested in the H3 cleavage assay. rCathepsin B, one of the most abundant lysosomal proteases, and rCathepsin K, which is reported to have a significant preference for leucine in the P2 position of its substrates much like Cathepsin L, were chosen to be tested first (Cathepsin S also shares this preference but was not found to have significant expression in our ESC model). Following pre-activation the recombinant enzymes, Cathepsins B, K, and L were incubated with rH3-HIS at both pH 5.5. and pH 7.5, and the reactions were then analyzed by immunoblotting with both HIS and H3.cs1 antibodies.

The mark [1] stands for this setting: pre-activated enzymes, pH 5.5 and pH 7.5.

B1: recombinant mouse Cathepsin L: recombinant mouse Cathepsin L enzyme (R&D Systems, # 1515-CY-010) (protein)
chain: TPKFDQTFSAEWHQWKSTHRRLYGTNEEEWRRAIWEKNMRMIQLHNGEYSNGQHGFSMEMNAFGDMTNEEFRQVVNGYRHQKHKKGRLFQEPLMLKIPKSVDWREKGCVTPVKNQGQCGSCWAFSASGCLEGQMFLKTGKLISLSEQNLVDCSHAQGNQGCNGGLMDFAFQYIKENGGLDSEESYPYEAKDGSCKYRAEFAVANDTGFVDIPQQEKALMKAVATVGPISVAMDASHPSLQFYSSGIYYEPNCSSKNLDHGVLLVGYGYEGTDSNKNKYWLVKNSWGSEWGMEGYIKIAKDRDNHCGLATAASYPVVN
With B1, under “pH 5.5 and pH 7.4”, the “cleavage of recombinant histone H3” value is given as “able to cleave recombinant histone H3” and the “generation of epitope recognized by H3.cs1 antibody” value was “created the specific epitope”. Moreover, under setting [1], the rH3-HIS cleavage pattern result is on record as “cleaves rH3-HIS robustly”.

B2: Cathepsin K: recombinant Cathepsin K (Calbiochem Cat. No. 342001) (protein, UniProt P43235 115-329, looked up)
Cathepsin K: APDSVDYRKKGYVTPVKNQGQCGSCWAFSSVGALEGQLKKKTGKLLNLSPQNLVDCVSENDGCGGGYMTNAFQYVQKNRGIDSEDAYPYVGQEESCMYNPTGKAAKCRGYREIPEGNEKALKRAVARVGPVSVAIDASLTSFQFYSKGVYYDESCNSDNLNHAVLAVGYGIQKGNKHWIIKNSWGENWGNKGYILMARNKNNACGIANLASFPKM
As to B2, under setting [1], the H3.cs1 epitope production result was “less abundant”.
